Data on one substance can be found in patent US20250313819A1.

In the test the target is poly-GA dipeptide repeat protein (human). The test can be described thus: MSD sandwich ELISA on neuron lysate, C9-patient vs KO line. For orientation: An ELISA detects its analyte on a solid surface through an enzyme-linked reagent.

Consider anti-GA antibody (MABN889, Millipore), for which the ratio of signal from the C9-patient vs KO line came out at 2.
